Results on two substances are retold here after paper PMC9456352.

Assay [1] has as its target ETE/P186G mutant (Staphylococcus aureus). The assay can be described thus: not stated; shown in Figure S5 (not shown); the methods tell SEC of ETE/P186G in 20 mM MES pH 7.0, 150 mM NaCl and BN-PAGE of peak fractions.
Assay [2] addresses Staphylococcus aureus exfoliative toxin E (Staphylococcus aureus). The assay can be described thus: SEC; Superdex G75 10/300 GL, 0.7 mL/min; several buffers, NaCl concentrations and pH values (among them 20 mM MES pH 7.0, 150 mM NaCl); BSA (~66 kDa) and bovine beta-trypsin (~24 kDa) as size controls; absorbance at 230 nm. A general note: In gel filtration, larger molecules generally elute earlier.

The target is the same in assay [3]. The assay can be described thus: SAXS; 5 mg/mL ETE in 20 mM MES pH 7.0, 150 mM NaCl, 25 °C; pair distance distribution by indirect Fourier transform.
Assay [4] shares this target. Description: native gel or EMSA; BN-PAGE 15%, 30 ug protein, running buffer 25 mM Tris pH 8.3, 192 mM glycine; BSA monomer and bovine beta-trypsin as markers; Coomassie stain. (In general: A gel shift assay detects complexes by their altered migration in electrophoresis.)

As a reminder, the stoichiometry N is the number of molecules, sites or subunits per partner or assembly. Consider ETE/P186G mutant (enzyme), for which the stoichiometry N in assay [1] was 2.
“Staphylococcus aureus exfoliative toxin E (enzyme)”: the stoichiometry N in assay [2], in assay [3] and in assay [4] was 2 in each case.
